In paper PMC6951436:

Assays:
[1] = target: pyruvate kinase liver isoform (PKL) (UniProt P12928); assay: size-exclusion chromatography of oligomeric state; conditions: reference: non-phosphorylated PKL (WT); sites S113
[2] = target: pyruvate kinase liver isoform (PKL) (UniProt P12928); assay: native PAGE of oligomeric state; conditions: reference: non-phosphorylated PKL (WT); sites S113

pyruvate kinase liver isoform (PKL) (from UniProt P12928-2) PKL pS113 proteoform, sequence (P12928 whole entry, looked up, change not shown, canonical isoform): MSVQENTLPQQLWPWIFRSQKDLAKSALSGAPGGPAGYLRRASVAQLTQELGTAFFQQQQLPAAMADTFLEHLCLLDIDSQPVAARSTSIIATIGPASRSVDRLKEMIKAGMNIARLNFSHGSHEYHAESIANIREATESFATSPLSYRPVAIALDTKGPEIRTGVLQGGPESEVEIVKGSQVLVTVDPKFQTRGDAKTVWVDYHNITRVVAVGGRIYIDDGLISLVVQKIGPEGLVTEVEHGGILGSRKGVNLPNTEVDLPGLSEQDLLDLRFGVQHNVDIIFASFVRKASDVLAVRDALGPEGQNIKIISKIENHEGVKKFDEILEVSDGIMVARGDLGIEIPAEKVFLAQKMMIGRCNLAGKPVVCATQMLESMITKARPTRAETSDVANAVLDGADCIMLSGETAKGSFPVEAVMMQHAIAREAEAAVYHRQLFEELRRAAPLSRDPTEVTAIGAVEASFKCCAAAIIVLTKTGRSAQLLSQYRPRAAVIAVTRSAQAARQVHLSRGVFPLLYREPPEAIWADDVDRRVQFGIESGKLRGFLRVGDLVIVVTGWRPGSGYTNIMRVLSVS
pyruvate kinase liver isoform (PKL) (UniProt P12928), sequence (P12928 whole entry, looked up, canonical isoform): as the sequence (P12928 whole entry, looked up, change not shown, canonical isoform) above

- binding against the reference [1]: same
- binding against the reference [2]: same
Substance: pyruvate kinase liver isoform (PKL) (from UniProt P12928-2) PKL pS113 proteoform
